Assay results: patent US11987606

What was measured:
[1] = target: T cell receptor of Ova-specific CD8+ T cells (OT-I), on OT-I cells (mouse); experiment: cell-based or functional assay
[2] = target: T cell receptor of Ova-specific CD8+ T cells (OT-I), on OT-I cells (mouse); experiment: flow cytometry; His-tagged protein pre-mixed with PE-labeled α-His mAb, incubated with OT-I cells at 37° C. for 5 hours

TCR Vα2 expression downregulated, percent of OT-I cells, compared to the α-His/PE control (flow cytometry) [1]: 90%
mean fluorescence shift relative to the unstained control [2]: 100 fold
percent of OT-I cells pMHC+ (PE fluorescence) [2]: 98%
Substance: Kb(Ova)/ANXA5 carrying a His tag (peptide-MHC)
